These results are taken from patent US20130251640A1.

For this assay, the target named is trypsin (trypsin-EDTA 0.25%, Sigma-Aldrich). As to the kind of experiment: cell-based or functional assay.

For the substance “PLL-FITC (poly-L-lysine conjugated with fluorescein isothiocyanate, FITC/PLL=10/1)”, the change in FITC fluorescence signal (dequenching) is over 34 fold.
